This passage reports Kd, koff and kon results from article PMC5374107, “Structure-Guided Identification of a Family of Dual Receptor-Binding PfEMP1 that Is Associated with Cerebral Malaria” (Cell Host & Microbe, 2017).

What all share (details): both partners purified
Test [1] concerns the target T1, Recombinant His-tagged EPCR (human, UniProt Q9UNN8 18-238, biotin (biotinylated by BirA)).
T1 construct: endothelial protein C receptor (EPCR); also called endothelial protein C receptor; source: S2 cells, purified and biotinylated (Lau et al., 2015)
T1 sequence: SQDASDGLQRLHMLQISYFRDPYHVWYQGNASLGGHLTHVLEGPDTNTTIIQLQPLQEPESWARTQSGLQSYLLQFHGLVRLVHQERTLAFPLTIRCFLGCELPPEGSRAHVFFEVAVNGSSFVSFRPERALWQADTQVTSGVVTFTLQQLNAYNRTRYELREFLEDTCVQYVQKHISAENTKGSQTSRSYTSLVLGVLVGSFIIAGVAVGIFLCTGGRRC
Nature of the test: SPR; Biacore T-200; biotinylated EPCR immobilized to 650 RU on a CAP chip (Biotin Capture Kit); head structures injected, two-fold dilutions 500 nM to 4 nM, 30 µL/min, 240 s association, 720 s dissociation; 10 mM HEPES pH 7.4, 300 mM NaCl, 0.05% Tween-20, 2 mg/ml ssDNA; one-site kinetic model.

Another test concerns the target T2, ICAM-1D1D5-Fc (human).
T2 construct: intercellular adhesion molecule 1 (ICAM-1), domains D1 to D5; captured on protein A by its Fc; also called ICAMD1D5; ICAM-1-Fc; source: HEK cells, recombinant (Bengtsson et al., 2013a)
Nature of the test: SPR; Biacore T-200; ICAM-1D1D5 Fc immobilized to 1,400 RU on a CM5 chip pre-coupled to Protein A; head structures injected, two-fold dilutions 4 nM to 500 nM, 40 µL/min, 240 s association, 600 s dissociation; 10 mM HEPES pH 8.0, 300 mM NaCl, 0.05% Tween-20; one-site kinetic model.

Test [2] concerns the target T1, Recombinant His-tagged EPCR. The test can be described thus: SPR; Biacore T-200; dual binding: ICAM-1D1D5 Fc immobilized (1,800, 2,100 or 1,500 RU) on Protein A CM5 chip, head structure injected at 250 nM for 240 s, then EPCR injected, two-fold dilutions 250 nM to 16 nM, 30 µL/min, 240 s association, 720 s dissociation; 10 mM HEPES pH 8.0, 300 mM NaCl, 0.05% Tween-20; one-site kinetic model.

B1: PF11_0521 head structure (NTS-DBLα1.7-CIDRα1.4-DBLβ3) (domain or fragment)
chain: MGNAIPATPDPIFINESYKSARNVLENVARLIKAKATKDVKRHRNVLKGNLRNAKFYHPFSKERPYYKSACDLDYRFHSNIWSGDNTYRHPCAGRNRNRFSYEGEAECRISRITGNKTEHGACAPYRRRHLCDYIFHQVNDNYIKTSDDLLGNLLVTAKYEGESIVNSYANSGMFNVCTALARSFADIGDIIRGKDLYLGNGDYKEKVSNNLRAIFNKIYENLNDPKLKKHYQKDAPNYYKLRDDWWNANREDVWKALTCNAPYEAQYFIKPSDKEHSFSSEYCGHYKNGDPLTNLDYVPQFLRWFEEWAEEFCRIKKIKLENVKNACRDEKKRKYCSLNGFDCTQTIWKKKVFGRGNDCTNCSFKCFPYEIWLGNQREAFRKQKEKYAKEIEAYVTNRGIPKSSINNGYYKDFYNKLKEKTYNTVDEFINLLNEGRYCKKQKPEEENIDFIKTGEKGTFYRSDYCQVCPDCGVDCSSGTCIEKKDDINCGKKINYEPPHGVKPIDIIVLYSGNEEGEITKRLSEFCTDSSNNKGKNYEQWKCYYKNGDDNKCKMVKNSGNNITEEKIISFDEFFYVWVRKLLIDSIKWENELNNCIDNTSTHCNKECNKNCECFDKWVKKKEDEWKNVKNVFENKNGTSHNYYNKLNGLFKGFFFEVMDKLNKDETKWNKLIESLRTKIDSSKENIGTGNTQDTIKVLLDHLKETATICKDNNTNEACETSRNRKTNPCAKPHGKKLATVKQIAQYYKRKAYIQLNERGSRSALKGDASQGQYDRGGKADDFKTKLCEINEKHSNARSNSLNPCNGKDNNKVRFNVGTPWQSGEKIATATDVYLPPRRQHFCTSNLEYLINGGHQAILNVKNGKINHSFLGDVLLAAKYQAQHTMKDYKSKNDKEGICRAIRYSFADIGDIIKGTDLWDKDGGEIKTQNHLVTIFDKIKAQLPKDIKGKYTGTKHLELRKDWWEANRDQVWKAMQCGNDNPCSGESDHTPLHDYIPQRLRWMTEWAEWYCKEQSRLYDKLKVCEECMRKGESCTKGSGECATCKEACEEYNKEIKKWEQQWDAISYKYLMLYAKARITAINGGPGYYNTEVQEEDKPVVDFLYNLYLQNGGKKGPPPDTHRVKALIARVKRDAARNRVKRADGSSATRVTATTTITPYSTAAGYIHQEAHIGDCQKQTQFCKNKNGSDVSDTEADPTYAFRDKPHDHDTACKC
Broadly, the Kd is the constant that tells how readily two partners part at equilibrium. In general, koff refers to the first-order rate constant of dissociation. Usually kon stands for the rate constant with which the complex forms. As to B1, in test [1], the Kd worked out at 1.18 nM, the koff amounted to 4.5e-05 s⁻¹ and the kon was found to be 38100 M⁻¹ s⁻¹. For the same molecule, in the test with ICAM-1D1D5-Fc, binding was characterised by a dissociation constant (Kd) of 2.33 nM, the koff was 5.41e-05 s⁻¹ and the on-rate (kon) was 23200 M⁻¹ s⁻¹.

B2: ICAM-1D1D5-Fc::PF11_0521 head structure complex (complex)
chain 1: QTSVSPSKVILPRGGSVLVTCSTSCDQPKLLGIETPLPKKELLLPGNNRKVYELSNVQEDSQPMCYSNCPDGQSTAKTFLTVYWTPERVELAPLPSWQPVGKNLTLRCQVEGGAPRANLTVVLLRGEKELKREPAVGEPAEVTTTVLVRRDHHGANFSCRTELDLRPQGLELFENTSAPYQLQTFVLPATPPQLVSPRVLEVDTQGTVVCSLDGLFPVSEAQVHLALGDQRLNPTVTYGNDSFSAKASVSVTAEDEGTQRLTCAVILGNQSQETLQTVTIYSFPAPNVILTKPEVSEGTEVTVKCEAHPRAKVTLNGVPAQPLGPRAQLLLKATPEDNGRSFSCSATLEVAGQLIHKNQTRELRVLYGPRLDERDCPGNWTWPENSQQTPMCQAWGNPLPELKCLKDGTFPLPIGESVTVTRDLEGTYLCRARSTQGEVTRKVTVNVLSPRYE
chain 2: MGNAIPATPDPIFINESYKSARNVLENVARLIKAKATKDVKRHRNVLKGNLRNAKFYHPFSKERPYYKSACDLDYRFHSNIWSGDNTYRHPCAGRNRNRFSYEGEAECRISRITGNKTEHGACAPYRRRHLCDYIFHQVNDNYIKTSDDLLGNLLVTAKYEGESIVNSYANSGMFNVCTALARSFADIGDIIRGKDLYLGNGDYKEKVSNNLRAIFNKIYENLNDPKLKKHYQKDAPNYYKLRDDWWNANREDVWKALTCNAPYEAQYFIKPSDKEHSFSSEYCGHYKNGDPLTNLDYVPQFLRWFEEWAEEFCRIKKIKLENVKNACRDEKKRKYCSLNGFDCTQTIWKKKVFGRGNDCTNCSFKCFPYEIWLGNQREAFRKQKEKYAKEIEAYVTNRGIPKSSINNGYYKDFYNKLKEKTYNTVDEFINLLNEGRYCKKQKPEEENIDFIKTGEKGTFYRSDYCQVCPDCGVDCSSGTCIEKKDDINCGKKINYEPPHGVKPIDIIVLYSGNEEGEITKRLSEFCTDSSNNKGKNYEQWKCYYKNGDDNKCKMVKNSGNNITEEKIISFDEFFYVWVRKLLIDSIKWENELNNCIDNTSTHCNKECNKNCECFDKWVKKKEDEWKNVKNVFENKNGTSHNYYNKLNGLFKGFFFEVMDKLNKDETKWNKLIESLRTKIDSSKENIGTGNTQDTIKVLLDHLKETATICKDNNTNEACETSRNRKTNPCAKPHGKKLATVKQIAQYYKRKAYIQLNERGSRSALKGDASQGQYDRGGKADDFKTKLCEINEKHSNARSNSLNPCNGKDNNKVRFNVGTPWQSGEKIATATDVYLPPRRQHFCTSNLEYLINGGHQAILNVKNGKINHSFLGDVLLAAKYQAQHTMKDYKSKNDKEGICRAIRYSFADIGDIIKGTDLWDKDGGEIKTQNHLVTIFDKIKAQLPKDIKGKYTGTKHLELRKDWWEANRDQVWKAMQCGNDNPCSGESDHTPLHDYIPQRLRWMTEWAEWYCKEQSRLYDKLKVCEECMRKGESCTKGSGECATCKEACEEYNKEIKKWEQQWDAISYKYLMLYAKARITAINGGPGYYNTEVQEEDKPVVDFLYNLYLQNGGKKGPPPDTHRVKALIARVKRDAARNRVKRADGSSATRVTATTTITPYSTAAGYIHQEAHIGDCQKQTQFCKNKNGSDVSDTEADPTYAFRDKPHDHDTACKC
As for B2, in test [2], the Kd was 11.4 nM, the dissociation rate constant (koff) was 0.000195 s⁻¹ and the kon was determined as 17200 M⁻¹ s⁻¹.
